The results in this text go back to patent US20250230251A1.

Experiment [1] deals with extracellular matrix (ECM) proteins. As to the kind of experiment: ECM (Matrigel) ELISA, 0.1 µM antibody. (In general: An ELISA detects its analyte on a solid surface through an enzyme-linked reagent.)
For experiment [2] the target is unchanged. As to the kind of experiment: ECM (Matrigel) ELISA, 1 µM antibody.

B1: P21 (antibody, human IgG1, kappa, V domains shown)
VH: QVQLQQSGPGLVKPSETLSLTCTVSGGSISNYYWTWIRQPPGKGLEWIGYISDSGSTNYNPSLKSRVTISVDTSKNQFSLKLSSVTAADTAVYYCARETIVVRGFYFYVMDVWGQGTTVTVSS
VL: AIQLTQSPSSLSASVGDRVTITCRASQGISSALAWYQQRPGKAPKLLIYDASNWESGVPSRFSGSGSGTDFTLTISSLQPEDFATYYCQQFNSYPWTFGQGTKVEIKR
Turning to B1, the ECM score in experiment [1] and in experiment [2] was 1.2 throughout.
